# Experimental data reported in the DeepSol protein solubility set.
# Assay: soluble on expression in E. coli; label from the status in PepcDB or PDB records
row,Sequence,soluble on expression in E. coli
1,MSLKDICLKVFGDYACFTRPEMKVERVSYDIITPSAARAIFEAILWKPAIRWRVTKIEVLKPIRWISVRRNEVGAVASVRTAQTAMQAGRGDLGLYIEEERQQRAGLFLREVAYRLHARCEPTDRKGEQESPDKFLAMFHRRATNGQCFNQPYLGCREFAAHFEPVTNLDAAMADEPPITETRDLGWMLHDIDFANGIQPKFFRAHMQQGVIRVPEWNSEGVKGEGHHHHHH,soluble
2,MSLKDLQKYQGIIPAFYACYDDKGDICPERVKALTNYFIDKGVQGLYVNGSSGECIYQSVADRKLVLENVMSVAKGKLTVIAHVACNNTKDSVELAMHAEAIGVDAIAAIPPIYFRLPEYAIADYWNTISQAAPQTDFIIYNIPQLAGVALTSDLYRKMLQNPQVIGVKNSSMPVQDIQNFVAIGGENHIVFNGPDEQFLGGRLMGAAAGIGGTYGVMPELYLTLNQLIVDKDLEKARELQFTINDIITKLCSGHGNMYAVIKAVLEINEQLTIGSVRLPLASVTEEDKPIIKEAAEEGHHHHHH,soluble
3,MSLKEENYRNQVTEDFEQKKQALPHGDLFTVFSNPDLSVYEQEALMFLYAYMPIGDVTDYSGDYYLENVRLSGQTRTEMPWGDLIPDELFRHFVLPIRVNNENLDDSRRVFYGELKDRVKHLSMKDAILEVNHWCHEKVVYRPSDARTSSPLASVKTAYGRCGEESTFTVAALRSVGIPARQVYTPRWAHTDDNHAWVEAWADGQWYFFGACEPEPVLNLGWFNAPASRGMLMHTKVFGRYTGPEEIMLETPNYTEINVIDNYAPTAKATVTVTDTEGHPVSGAKVEFKIYNYAEFYTVATKYTDAEGKAFLTAGKGDMLVWASRDGKFGYAKLSFGKEDALKLSLDKKVGESYTLPMDIVPPVEGANLPEVTPEQRAENDHRMTQEDSIRNAYVATMMTDEQAKEWVNGLYGNILQPETMKDKLAAFLVASRGNHQTLKDFLSAIRKEKKHISWEEMRGMWLLENISAKDLRDVTLDVLNDHLKNTSDGEKTDTDLVKRALLNPRIANEMLTPYKKILYDAISEAVLKSAPVDAAHDAKALIEWCRKEIKIDNELNSQQIPVSPMGVWKSRVADEKSRDIFFVAAARSIGIPAWIDEVTGKVQYVSDGLSPQDVNFETSQSTQSCTGMLKASYTPIRSLSDPKYYSHFTISKFKNGTFQLLNYDEGDVDMGGGATWSNLLKNGVKLDEGYYMMVTGTRLASGAVLSNTTFFTIEPDKTTTVDLVMRESKDQVQVIGNFNSEATYRPVGGTDLQSILQTCGRGYFVVAVLGVGQEPTNHALRDIAALRSEFEQWGRKMVFLFPSEEQYKKFNTHEFKDLPSTIVYGIDVDNSIQKQIVDAMKLNQSTLPVFIIADTFNRVVFVSQGYTIGLGEQLMKVVHGEGHHHHHH,soluble
4,MSLKEFDFIKRYLQTGTDNDVVLGIGDDAAIVRPREGFDLCFSADMLLKDRHFFADVKPEDLAWKVLAVNISDMAAMGAIPRWVLLSAALPELDEVWLKRFCGSFFGLAKKFGVTLIGGDTTKGDMAFNVTIIGELPKGRALRRDAAVAGDDIWVSGRIGMAAAALNCRLKRCVLPDEVFAECEQKLLHPEPRVGLGLALLPFARAAQDVSDGLAQDLGHILTASGKGAEIWADSLPSLSVLKDILPRAQWLSYTLAGGDDYELVFTAPESCRSRVFDAAERCGVPVTRIGKINGGCRLKVLDADGRELELHSLGFDHFGEGHHHHHH,soluble
5,MSLKEISVVLVGIGGYGNKYVEYILREGREKGVRISGVVDPYPQNSRFYDELRSLNVPMYNTLEEFYSHHTADLAIISSPIHYHCEQTCTAVRNGSHVLCEKPAAATVKEVKKMIECREKYGKIVAIGYQWSYNPAVLKLKEDILAGKFGKPVLFKTLVLWPRDTAYYRRNSWAGKLKVNNRWVLDSVAGNATAHFLHNMLFLLGEKMEESAYPESMVAELYRANDIESFDTCALKMTVRKIPVLFFATHAVKERKGPVFEYRFEKARVICNYPEYPESEENLLVVYEDGRKEIYGPTDHGSMRKLWVVVDAARGRKEFICTLESAMAHTIAINGAHVSMKEIQDFPTELKRVEGEPPMIWVEGLKEAMERAYEEEKIFSELNLPWAKRGEEVKLENFEGLEGEITEGHHHHHH,soluble
6,MSLKEVRYAMIHDESRCNGCNICARACRKTNHVPAQGSRLSIAHIPVTDNDNETQYHFFRQSCQHCEDAPCIDVCPTGASWRDEQGIVRVEKSQCIGCSYCIGACPYLVRYLNPVTKVADKCDFCAESRLAKGFPPICVSACPEHALIFGREDSPEIQAWLQDNKYYQYQLPGTGKPHLYRRFGQHLIKKENEGHHHHHH,not soluble
7,MSLKFIVKPHPEIFVKSESVRKRFTKILESNIRIIVKARTQGVAVFNRRDHIEVTSNSDTYYAEVLEILTTTPGIQQVLEVQQSSFTDLHNIYEQVLELNRANLENKTFVVRAKRRGKHDFTSIELERYVGGGLNQAIASAKVKLINPDVTVQVEVVDELLNQVIARHKGLGGFPLGTQEDVLSLISGGFDSGVSSYLHIKRGSKVHYCFFNLGGPAHEIGVKQTAYYLWQKYGSSAKVRFIAIDFAPVVAEILEKIDDGQMGVVLKRMFMRTAGMVAEKFGIQALVTGEALGQVSSQTLTNLRHIDNVTDTLILRPLINWDKEDIIRLAREIGTEDFAKTMPEFCGVISKSPTVKAVKEKLEEEEAKFDFALLDQVVYNARQIDIRDIGKEGHHHHHH,soluble
8,MSLKHSKIRIAHISDIHIGSRLDKLPQKMVNKIIEENPDLVVITGDLIDSHNVISTDLASFNAFKERNIPIYYTIGNHDIMAGEEYVSSILEYYGIIYLKNQVTQITIGDETIQLVGIDDVQSITKYNEIFNSITPSIHNNIYTILLHHRPQGYKTSVQSGQIDLQLAGHTHDGQVFPFNYIVPLFHSKSYGMYHIKDTSKELILYTHPGSCAWGPHFRTAAKNLITIFSIESSNEGHHHHHH,soluble
9,MSLKIAAFGEVMLRFTPPEYLMLEQTEQLRMNFVGTGVNLLANLAHFQLETALITKLPANRLGEAGKAALRKLGISDQWVGEKGDHIGSFFAEMGYGIRPTQVTYQNRHQSAFGISEAKDYDFEAFLAEVDMVHICGISLSLTEKTRDAALILAQKAHAYQKKVCFDFNYRPSLNTANSALFMRQQYERILPYCDIVFGSRRDLVELLGFIPREDLEGEAQETELIQRFMSQYNLEWFAGTTRSHSQNQNYLSGYLYTQNEYQQSEKRPLLNLDRIGAGDAYAAGILYGYSQNWSLEKAVTFATVNGVLAHTIQGDIPLTTVKQVNHVLEHPNIDLIREGHHHHHH,soluble
10,MSLKIAVTGGTGFLGQYVVESIKNDGNTPIILTRSIGNKAINDYEYRVSDYTLEDLINQLNDVDAVVHLAATRGSQGKISEFHDNEILTQNLYDACYENNISNIVYASTISAYSDETSLPWNEKELPLPDLMYGVSKLACEHIGNIYSRKKGLCIKNLRFAHLYGFNEKNNYMINRFFRQAFHGEQLTLHANSVAKREFLYAKDAAKSVIYALKQEKVSGTFNIGSGDALTNYEVANTINNAFGNKDNLLVKNPNANEGIHSSYMDSSKAKELLDFSTDYNFATAVEEIHLLMRGLDDVPLWYEGHHHHHH,soluble
11,MSLKIAVVQFPGSNCERETMLAVQRAGMTPVEFLWNDSSQKLREMDGYIIIGGFSYEDRSRAGIIAALDPVMKEIKLQSELGKPVLGICNGAQILVETGLVPGLKNYQIGMALTENKRIQDGKILGTGFYNSWIHMRTGDRVRQNAFTRYLSKDSVLSIPAAHAEGRFVMPVKLLQEIEEEGLNAFQYCDAQGNRDDNFPVNPNGSLRNIAAIINKAGNVMAIMPHPERTFAGDPIFHSMKEYIKEKKTFKQQTLSYQPEPVKIIPYDKKDNAHELIVKLIITDNAALTVQNTLRQLGIPVTVNRMMYWHVDTNFPETIEKIKQTGVLYNDRKEYLVTSEHIFSSAAKAFLVKSKDDMIGQQKLQMLRDHFSIDGVDAIHHGVLWMFSSENVKIQELAESILATNIIFNPNAHICYEYQCPEGHHHHHH,soluble
12,MSLKILVLGIGNILFGDEGIGVHLSNLLKVNYRFEGPHQVDVIDGGTLAQLLIPLITSYDYVIVIDCVDAGGGKIGEVYFFDFDNVPNVITWQGSAHEVEMLQTLRMTEVNGDLPPVKIVGVIPSIIGSETAFDLSKEVAEASVTMEKIVLNHLQELGVEITRIDSKTIDEIAPLSYKGEGHHHHHH,soluble
13,MSLKIRLPEMIDYFRKENGWTMKEFGEKLGKSESAISKWIKGVRSPMVEDFDKMVNLFNTDPDTLMYGASDLSTTLSEINKISSQLEEPRQKVVLNTATNQLDEQNQEKKKESKVIPINKIPDDLPPYISRKILENFVMPTNTMEYEPDEDMVDVPILGRIAAGLPLDAVENFDGTRPVPAHFLSSARDYYWLMVDGHSMEPKIPFGSYVLIEAVPDVTDGTIGAVLFQDDCQATLKKVYHEIDCLRLVSINKEFKDQFATQDNPAAVIGQAVKVEIDLEGHHHHHH,soluble
14,MSLKIVIIGASFAGISAAIASRKKYPQAEISLIDKQATVGYLSGGLSAYFNHTINELHEARYITEEELRRQKIQLLLNREVVAMDVENQLIAWTRKEEQQWYSYDKLILATGASQFSTQIRGSQTEKLLKYKFLSGALAAVPLLENSQTVAVIGAGPIGMEAIDFLVKMKKTVHVFESLENLLPKYFDKEMVAEVQKSLEKQAVIFHFEETVLGIEETANGIVLETSEQEISCDSGIFALNLHPQLAYLDKKIQRNLDQTIAVDAYLQTSVPNVFAIGDCISVMNEPVAETFYAPLVNNAVRTGLVVANNLEEKTHRFIGSLRTMGTKVGDYYLASTGLTETEGLFFPQTLASIIVRQPAPPLQHGTEILGKLIYDKVTQRVLGAQLCSKNNCLEKINTLALSIQTGQTLTDLLQKDYFYQPSLTNIYDITNLMGASAYWRENDEGHHHHHH,soluble
15,MSLKIVLTGSIGRINQTLVPKLTHAGHEVTVISHQATRSSLIKVFRATPAIGRLDDEAFLTKTFMGADVVYLMVTGIAASDDLYTAAKRQADIYAAAIKAAGVKRVVNLSSVGADLGPEVGALYMYHIIEQTLTTALPDVDLTFIRPTAMYYNLLSSVPTVKKSHRIYTNANLAVKNVWVAPVDVTTVLIKALTEPTPGQTVTYVASDEKTYLEVASALSQALKMPDLRVSQVPDEVMQDHLVTAGTPVAFAREYVKTVAYQRDHDFYADYRAHQPRLGDVKLADFAEGHHHHHH,not soluble
16,MSLKKIDGHAHIVDTIAGFNGKGRLNALGNGYAIWDDGDLIKLIPDEYGDKAFTAEAFLKYMDANGVDKAVILQGHLNGYQNYYTHLAIKRYPERFTGAFSVDPFADNAMQIVKRHVEVLGFRAIKFEISQGGGIHGYRGQKTPFRLDTDPHVSRILTYLLDYPGFVVTVDYGNWDQISHQPDAIANLARLYTSLDFVVCHLSFPHVEHSNRLRAELNMWKNFNNIYTDISAIQDIDAPDSFPFPKSEQNVRIAKEVLGAKRIIWGTDSPWSATFNTYEELATWLENVDIFSQEELEDVMYNNAERVYFKEEHVKANRAGIDDTTKELNLYEGHHHHHH,soluble
17,MSLKKIIITGALGQIGTELVIKCRERYGTENVLATDIRKPEPHSPVKNGPFEILDVTDRNRLFETVRYFNADTLMHMAALLSATAEKKPLVAWDLNMGGLINTLEAARRYQLKYFTPSSIGAFGISTPKVNTPQLTIQQPTTMYGINKVTGELLCQYYYVKFGVDTRSVRFPGLISHVKEPGGGITDYAVDMYFKAVRKGHYTSYINRYTYMDMMYMEDAIDAIIKLMEEDSVKLKTRNGYNLSAMSIEPEMLKQAIQVYYPDFTLDYDIDLERQDIALSWPDSIDTSCAQEEWGFDPKYDLPTMTKVMLEAIEKKQKEEGHHHHHH,soluble
